Data taken from the Human Domainome abundance scans (Beltran et al. 2025).

B1: SWI/SNF complex subunit SMARCC2, residues 599 to 641; numbered along this chain, Q8TAQ2 (parent)
chain: REWTEQETLLLLEALEMYKDDWNKVSEHVGSRTQDECILHFLR

Variants of: B1
Assay: abundance fitness (aPCA) (normalised: wild type 0, dead -1); higher = more abundant; growth selection in yeast, the domain comes from the species named
Settings: Homo sapiens

Abundance fitness: each site, then its substitutions
A14: K -0.844; Q -0.797; M -0.991
K19: F -0.151; V -0.256; Y -0.427; W -0.526; D -0.143; T -0.003; I -0.303; L -0.458; G -0.235; S -0.287; A -0.26; P -0.052; R -0.115; C -0.314; M -0.332; E 0.019; H -0.272; N 0.29
E16: Y -0.54; V -0.501; P -0.018; H -0.294; K -0.059; Q -0.186; M -0.439; R 0.062; G -0.152; F -0.372; I -0.759; T -0.091; S -0.301; L -0.698
L12: W -0.145; C -0.351; K 0.204; S -0.169
D20: Q 0.244; K 0.054; C -0.15; T -0.412; Y -0.072; A -0.181; R 0.289; G 0.005; I -0.777; L -0.448; P 0.055; N -0.031; F -0.357; M -0.361; W -0.237; S 0.027
L10: H -0.115; T -0.226; N -0.195; M 0.03; Q -0.018; W -0.325; P -0.422; Y -0.024; V 0.029; K 0.028; S -0.009; I -0.35; G -0.171; R -0.208
L11: E -0.628; M -0.357; A -0.364; S -0.788; W -0.619; R -0.635; D -0.801; I -0.564; Q -0.556; K -0.588; T -0.412; C -0.17; H -0.457; P -1.19; N -0.575
